According to the supplement of paper PMC6755084:

B1: minF1; the commonest letter at each place (parent)
chain: GAGACCGCAACTGAAAAGTTGTTATCAGAAATGGATGGGTTGAATTTCTGCACGTAGAAGCAAAAGGC

Variants of: B1
Assay: fraction ligated after 30 min (ligated reads / total reads); higher = more ligase activity
Settings: with F1*subA RNA substrate (template-directed ligation), 42 °C
Protocol: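 Chip-synthesised pool of minF1 ligase ribozyme variants (single and double substitutions, single to quadruple deletions, bulge and P2 designed variants) was transcribed with T7 and reacted as a pool with excess substrate F1*subA for 30 min at 42 C in 50 mM EPPS pH 8.5, 25 mM MgCl2. Ligated and unligated RNAs were separated by PAGE, barcoded by RT and deep sequenced; fraction ligated = ligated reads / total reads, relative activity = FL / FL of wild-type minF1 (0.76); sequencing FL correlated with PAGE (R2 = 0.98). Sequences are the DNA template of the ribozyme.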

Variant	fraction ligated
T25C A30G	0.0308
T25C A30T	0.0786
T25C G42A	0.00331
T25C G42C	0.00383
T25C G42T	0.00269
T25A G28T	0.0157
T25A G28C	0.00741
T25A G28A	0.011
A24G A44C	0.00892
A24G A44G	0.0186
A24G A44T	0.016
A24C A35G	0.00404
A24C A35T	0.00376
A24C A35C	0.00154
T25A A43C	0.00284
T25A A43G	0.00383
T25A A43T	0.00628
T25C A29G	0.0416
T25C A29C	0.0251
T25C A29T	0.0467
A24G A30G	0.185
A24G A30T	0.058
A24G A30C	0.0534
A24C A30T	0.0451

Variant	fraction ligated
A24C A30G	0.0241
A24C A30C	0.034
T25G A35G	0.00379
T25G A35T	0.396
T25G A35C	0.845
T25A T36A	0.00698
T25A T36G	0.0106
T25A T36C	0.00785
T25G T32G	0.00886
T25G T32A	0.00223
T25G T32C	0.00349
C26A A27G	0.481
C26A A27T	0.0953
C26A A27C	0.134
T25C A31C	0.0548
T25C A31G	0.057
T25C A31T	0.0613
C26A A31G	0.102
C26A A31T	0.0701
C26A A31C	0.0417
T25G A44C	0.00312
T25G A44G	0.00956
T25G A44T	0.00667
A24T T36A	0.0205

Variant	fraction ligated
A24T T36C	0.00304
A24T T36G	0.0114
T25A G34C	0.0033
T25A G34A	0.00806
T25A G34T	0.00319
A24C T36A	0.0726
A24C T36G	0.438
A24C T36C	0.0109
A24T T32A	0.00395
A24T T32G	0.00134
A24T T32C	0.000877
A24T T25C	0.0313
A24T T25G	0.00899
A24T T25A	0.0063
T25G A29G	0.0196
T25G A29T	0.0188
T25G A29C	0.0105
T25C A35C	0.00531
T25C A35T	0.009
T25C A35G	0.0463
A24T G34T	0.00322
A24T G34A	0.0316
A24T G34C	0.00388
T25G G42T	0.000854

Variant	fraction ligated
T25G G42A	0.00421
T25G G42C	0.004
A24T A35G	0.00268
A24T A35T	0.00183
A24T A35C	0.0024
A24T G33A	0.0223
A24T G33T	0.0124
A24T G33C	0.00781
A24T G42A	0.00238
A24T G42C	0.00191
A24T G42T	0.00308
T25A A30G	0.00687
T25A A30T	0.0158
T25A A30C	0.0114
T25C G28C	0.165
T25C G28T	0.207
T25C G28A	0.15
T25G A31C	0.0154
T25G A31G	0.0115
T25G A31T	0.0111
T25A G33T	0.00763
T25A G33A	0.0105
T25A G33C	0.00366
T25A G37C	0.00598

Variant	fraction ligated
T25A G37A	0.00183
T25A G37T	0.00505
T25C A27G	0.209
T25C A27T	0.407
T25C A27C	0.113
A24G G33C	0.0566
A24G G33T	0.0804
A24G G33A	0.294
T25C A43T	0.00508
T25C A43C	0.0068
T25C A43G	0.00741
A24T A29G	0.00599
A24T A29T	0.0058
A24T A29C	0.0116
C26A T36A	0.0039
C26A T36C	0.00707
C26A T36G	0.0133
T25A G42T	0.00246
T25A G42C	0.00199
T25A G42A	0.00144
T25G T36A	0.0107
T25G T36G	0.0257
T25G T36C	0.00768
A24G T32C	0.00122

Variant	fraction ligated
A24G T32G	0.00185
A24G T32A	0.00439
T25A C26G	0.00462
T25A C26T	0.00642
T25A C26A	0.00271
A24C A29T	0.0449
A24C A29G	0.0302
A24C A29C	0.0282
T25A T32C	0.00391
T25A T32A	0.00329
T25A T32G	0.00199
A24T G28T	0.0703
A24T G28A	0.0366
A24T G28C	0.0438
T25C T32C	0.00341
T25C T32A	0.00778
T25C T32G	0.00219
T23G T36C	0.0436
T23G T36G	0.061
T23G T36A	0.0286
T25G A27G	0.0208
T25G A27C	0.0754
T25G A27T	0.0947
T25C G37C	0.00302

Variant	fraction ligated
T25C G37A	0.00575
T25C G37T	0.00523
A24T G37T	0.00399
A24T G37A	0.00164
A24T G37C	0.00436
A24C A44G	0.00645
A24C A44C	0.00359
A24C A44T	0.0123
T25G C26G	0.00725
T25G C26T	0.00381
T25G C26A	0.00653
A24G A29G	0.0952
A24G A29C	0.0668
A24G A29T	0.116
C26A A29C	0.0944
C26A A29T	0.112
C26A A29G	0.0844
T25G G37T	0.00311
T25G G37A	0.00178
T25G G37C	0.00475
C26A A43T	0.00633
C26A A43C	0.00276
C26A A43G	0.00987
